Reference: patent US20170342155A1 (Amgen, published 2017)

Columns and labels:
Test in all cases: flow cytometry on transfected 293T cells, PE secondary antibody, geo mean
[1] = molecular target: T1, human CCR7 variant H127Y (20100135009) (human, UniProt P32248 25-378)
T1 sequence: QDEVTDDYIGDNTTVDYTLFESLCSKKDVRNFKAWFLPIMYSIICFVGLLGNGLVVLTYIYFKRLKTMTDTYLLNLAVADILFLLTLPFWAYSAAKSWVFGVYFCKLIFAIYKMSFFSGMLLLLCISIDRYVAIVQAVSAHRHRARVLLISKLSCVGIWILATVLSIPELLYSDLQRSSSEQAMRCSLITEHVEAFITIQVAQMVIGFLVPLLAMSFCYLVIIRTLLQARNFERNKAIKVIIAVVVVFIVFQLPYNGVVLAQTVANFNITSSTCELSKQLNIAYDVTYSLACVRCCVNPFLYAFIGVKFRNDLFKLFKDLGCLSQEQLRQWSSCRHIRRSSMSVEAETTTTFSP

[2] = molecular target: T2, human CCR7 variant S295N (20110018205) (human, UniProt P32248 25-378)
T2 sequence: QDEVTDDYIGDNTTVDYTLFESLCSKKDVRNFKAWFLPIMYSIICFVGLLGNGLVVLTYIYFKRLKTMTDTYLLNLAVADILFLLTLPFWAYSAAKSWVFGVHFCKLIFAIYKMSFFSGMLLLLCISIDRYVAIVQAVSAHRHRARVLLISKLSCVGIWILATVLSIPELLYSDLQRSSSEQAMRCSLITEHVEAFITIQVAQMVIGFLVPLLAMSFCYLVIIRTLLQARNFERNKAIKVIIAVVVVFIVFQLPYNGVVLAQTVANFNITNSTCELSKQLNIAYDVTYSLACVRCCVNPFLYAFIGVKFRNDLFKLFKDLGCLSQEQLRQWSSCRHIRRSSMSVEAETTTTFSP

[3] = molecular target: T3, human CCR7 variant R201K (20100171268) (human, UniProt P32248 25-378)
T3 sequence: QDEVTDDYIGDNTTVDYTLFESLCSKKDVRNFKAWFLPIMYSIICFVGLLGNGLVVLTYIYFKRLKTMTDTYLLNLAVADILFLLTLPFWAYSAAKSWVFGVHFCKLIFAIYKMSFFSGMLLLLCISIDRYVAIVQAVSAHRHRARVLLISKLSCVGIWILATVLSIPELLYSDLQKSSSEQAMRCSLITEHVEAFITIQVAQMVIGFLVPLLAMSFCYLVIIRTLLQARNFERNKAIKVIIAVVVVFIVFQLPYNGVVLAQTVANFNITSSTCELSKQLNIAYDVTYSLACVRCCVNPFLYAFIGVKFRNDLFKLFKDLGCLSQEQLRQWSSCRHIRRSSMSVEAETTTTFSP

[4] = molecular target: T4, human CCR7 variant L300T (20110018204) (human, UniProt P32248 25-378)
T4 sequence: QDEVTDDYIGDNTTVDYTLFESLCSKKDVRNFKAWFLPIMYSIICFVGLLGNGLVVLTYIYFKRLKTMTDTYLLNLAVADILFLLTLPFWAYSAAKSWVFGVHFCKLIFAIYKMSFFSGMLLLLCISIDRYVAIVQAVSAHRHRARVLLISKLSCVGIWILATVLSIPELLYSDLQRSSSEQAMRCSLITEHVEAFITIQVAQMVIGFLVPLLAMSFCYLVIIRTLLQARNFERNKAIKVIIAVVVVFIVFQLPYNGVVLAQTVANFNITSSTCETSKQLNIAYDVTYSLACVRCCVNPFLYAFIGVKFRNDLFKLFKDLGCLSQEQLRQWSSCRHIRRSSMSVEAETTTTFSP

[5] = molecular target: T5, human CCR7 variant T297S (20110018203) (human, UniProt P32248 25-378)
T5 sequence: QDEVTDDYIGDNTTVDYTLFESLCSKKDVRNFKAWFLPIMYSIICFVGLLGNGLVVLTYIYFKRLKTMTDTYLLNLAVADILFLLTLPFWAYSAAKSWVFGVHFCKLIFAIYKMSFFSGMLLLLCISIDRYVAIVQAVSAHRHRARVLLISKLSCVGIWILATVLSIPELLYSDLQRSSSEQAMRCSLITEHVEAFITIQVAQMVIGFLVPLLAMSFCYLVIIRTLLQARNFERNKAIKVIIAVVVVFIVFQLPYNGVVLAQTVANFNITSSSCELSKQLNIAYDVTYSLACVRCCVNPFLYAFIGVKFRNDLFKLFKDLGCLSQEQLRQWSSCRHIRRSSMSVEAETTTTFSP

[6] = molecular target: T6, murine CCR7 K201R/N202S/G204S/T207A/L208M construct 20110094673 (mouse, UniProt P47774 25-378)
T6 construct: Murine CCR7 with five human ECL2 residues; also called KNGTL; KNGTL construct
T6 chain: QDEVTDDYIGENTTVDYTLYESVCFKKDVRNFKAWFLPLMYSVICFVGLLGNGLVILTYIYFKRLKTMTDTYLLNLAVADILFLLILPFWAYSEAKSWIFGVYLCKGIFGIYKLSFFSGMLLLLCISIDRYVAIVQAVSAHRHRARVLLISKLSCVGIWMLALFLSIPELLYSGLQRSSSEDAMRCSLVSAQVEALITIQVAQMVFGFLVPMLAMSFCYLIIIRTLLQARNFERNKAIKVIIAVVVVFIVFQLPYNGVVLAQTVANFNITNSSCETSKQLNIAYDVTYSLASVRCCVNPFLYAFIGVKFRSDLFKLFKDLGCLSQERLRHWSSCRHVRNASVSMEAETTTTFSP

[7] = molecular target: T7, human CCR7 variant L47V (20100122626) (human, UniProt P32248 25-378)
T7 sequence: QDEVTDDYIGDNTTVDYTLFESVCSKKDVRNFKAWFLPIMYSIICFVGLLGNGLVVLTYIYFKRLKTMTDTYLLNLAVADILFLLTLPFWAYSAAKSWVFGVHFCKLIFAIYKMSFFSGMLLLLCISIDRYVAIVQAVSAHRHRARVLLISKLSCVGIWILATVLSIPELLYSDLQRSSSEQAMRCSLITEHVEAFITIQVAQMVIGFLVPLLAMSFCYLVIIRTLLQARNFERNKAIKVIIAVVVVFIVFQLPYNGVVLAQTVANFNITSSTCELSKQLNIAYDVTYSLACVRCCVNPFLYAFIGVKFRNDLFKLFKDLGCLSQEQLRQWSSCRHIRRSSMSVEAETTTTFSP

Measured: binding result

B1: antibody 6B4.1 (antibody, V domains shown)
VH: QVQLVESGGGVVQPGRSLRLSCAASGFTFSSYGMHWVRQAPGKGLEWVAVIWYDGSKKYYADSVKGRFTISRDNSKNTLYLQMNRLRAEDTAVYYCARDGGIAVFLQDNWFDPWGQGTLVTVSS
VL: SYELTQPPSVSVSPGQRARITCSGDKLGDKYASWYQQKPGQSPLLVIYQDSKRPSGIPERFSGSNSGNTATLTISGTQAMDEADYYCQAWGSSTVIFGGGTKLTVLG
notes: Human antibody from XenoMouse hybridoma; Light = 2 and heavy = 42 is inferred from the order of the listing (light chains first)
binds: [1] | [2] | [3] | [4] | [5] | [6] | [7]

B2: antibody 6B5.1 (antibody, human IgG2, lambda, V domains shown)
VH: QVQLVESGGGVVQPGRSLRLSCAASGFTFRSYGMHWVRQAPGKGLEWVAVIWYDGSKKYYADSVKGRFTISRDNSKNTLYLQMNRLRAEDTAVYYCARDGGIAVFLEDNWFDPWGQGTLVTVSS
VL: SYELTQPPSVSVSPGQRASITCSGDKLGDKYASWYQQKPGQSPLLVIYQDGKRPSGIPERFSGSNSGNTATLTISGTQAMDEADYYCQAWGSSTVIFGGGTKLTVLG
notes: Human antibody from XenoMouse hybridoma; Light = 18 and heavy = 50 is inferred from the order of the listing
binds: [1] | [2] | [3] | [4] | [5] | [6] | [7]
